Results taken from US10975360B2, “Process for the modification of alkanes, fatty acids and fatty alcohols” (priority 2016, dated 2021).

B1: CYP505Hv: CYP505 cytochrome P450 monooxygenase from Hypocrea virens, SEQ ID No 10 (protein, listed as Hypocrea virens)
chain: MKPAKNPNLVEIPKPKGLPVIGSLHHIDLESPLFSLIELIQPLGPICQLTFGSELNIFVSSIELLNELCDESRFQKIVTAELEKLRHVVHDGLFTARNEERNWEIAHRILMPVFGTIKIREMFPEMKDLAQQLCLKWARYGEEYVIDVTADFTRLTLDTLALCTMGFRFNSFHNGTVLHPFVDSMVRTLKEASVQAALPNFINSLRKKSWRRYEKDTAFMRKLCQDIIDKRKSQTDTDSHDLLAALLRGRDPKTGEGLSDDSIIDNMLTFLIAGHETTSGLLSFAMYYLLANPQTMEKARQEVDEVSQGSPIAVEHLSKLPYLNAVLKETLRLQPTAPGFILSSPKDEIIGGKYLIPANIPIGVLLHMVHLDKAVYGEDAAEFKPERMLDENFNKLPPNSWKPFGNGMRGCIGRAFATQEALLIVAMLLQSFTFEMADPGYKLKIKETLTVKPDNFRMKAKLRRGGTATDFQRELQSLGSVGAKLSSTPSVTSAQTGGGDKKPLTILYGSNSGTCEALAYRLASDATLHGFYARKIAPLNAARNSLPKSEPVIILAASYDGLPSDNAEEFFDWLNTAEKDSLKGVSYSVFGCGHRDWVATFQRVPILIDDLLQRAGAERFANRGLADSAVMDLFVELEKWTTDSVWPAISQTDGKQDNDGEGKLISSLLKVEFSQPRQLQQYSHLVEATVMESRSLTTPSAIGKKMHVDIQLPSGVSYHPGDHLLVLPVNPIRNVKRVLSRFHLTWDTIVRASGNESVRIPIETAMTVHELLSSYFELAQPATPRDIRVLAAAAEDEATKQVLNNLATTSYLEDIQEKKTSLLDLLEKFPEISIAFGTYLTLLPSLRLRTYSISSSPSWNSSRATLTLSVLDEPATTPGSKRYLGVASNHLAGLTPGDLIHVATRPVKGIFQMPADLSKAPTIMIAAGAGLAPFRGFIQERAYQQQNGVQLAPAALFFGCRSSHDDLYRSELDAFESSGVIRVFRAYSREDVGSKSNTRKGYVQDSLQAEKDVFVQLWNAGAKVYVCGSVKMASQVKDLVANLVYTAEPMDAQKEFTPQEWFKRFEKTRYAAEIFT
B2: CYP505Om: CYP505 cytochrome P450 monooxygenase from Oidiodendron maius, SEQ ID No 11 (protein, listed as Oidiodendron maius)
chain: MTKKNHALIPIPGPSVWPLLGNLFDIDTEHGLASVLEMGRSYGDIFQLVLGGNKLVFLQTHALFDEVCDESRFCKVVVSGLGNLRAGVNDGLFTAHDGEHNWGVAHRIIMPIFGPIKIRETLGGMKDVCQELSLKWARYGPDHRIDIAGDLTRLTLDTIAFCTMGYRFNSFYRNSDVHPFVKSMVGFLREADKSSMIPEYLNAFRWKARRSFLGDIASMREMSMMILNLRRGNPSDRDDLLNALLHGRDPKTGEGMSDESIINNLITFLVAGHETTSGALSFVFYYLLTNPESLKNAREEVDRVIGAGNITADHLSKLPYIDAVLREALRLNPTGPAITLGAREDTTLGGKYAVKKGEPVLCMFHNIHRDKKVYGEDADEWKPERMMDENFNKLPKNAWKPFGNGTRGCIGRAFAWQESQLVIASILQNFDLTLDNPDYKLEIVETLTIKPGNFYVRAKLRSGRTPRELCGFSNPISTNIQIKNGTIAPANDGQVGNSTPVTILYGSNSGTCEALAHRLARDAPSYGYSVTTVATLDSVIGILPRAKDELVVIITCSYDGLPADNAVRFCNWLKTLDEDALGGMPFAVFACGHHDWAKTFYKVPIMIDELLARAGAHRVAQMGKANSAVSDMFSDLENWEDEHLWSSSSAAGNETVDNVARTEVKQDITITNPRARALHHNAVECIVSETHKLSESGSALKYHVEIQLPANMKYAPGDHLSVLPINPRQNVRRALARFHLAGDSVLSVARIGHMGTLGQETLSAFDVFASYVELSQPATRRNIATLLSVTPEGEGRYELAELGGAAFESQIRDMRVSVLDLLERYKAIKLCVGAFIDMLPPLRVRTYSISSSALWKPSHASLTISVLAQPALSGQGSFLGVASNFLADLVPGDAVHFTIRPCKKQFHLPDDASAHPIIMVAAGSGIAPFRGFIQDRALQRRNGVQLQPAILFFGCRGSKQDDLYRQELDEFEAEGVVSVRRAFSGEETVSISESRMYVQDRMWADRAEVIQLWNLGAKIYVCGGINMADGVREIFNEIVGPTEVDGKRGAESLNKLSEETMSARYVAEIFSQT
B3: CYP505Ao: CYP505 cytochrome P450 monooxygenase from Aspergillus oryzae, SEQ ID No 9 (protein, listed as Aspergillus oryzae)
chain: MRQNDNEKQICPIPGPQGLPFLGNILDIDLDNGTMSTLKIAKTYYPIFKFTFAGETSIVINSVALLSELCDETRFHKHVSFGLELLRSGTHDGLFTAYDHEKNWGLAHRLLVPAFGPLRIREMFPQMHDIAQQLCLKWQRYGPRRPLNLVDDFTRTTLDTIALCAMGYRFNSFYSEGDFHPFIKSMVRFLKEAETQATLPSFISNLRVRAKRRTQLDIDLMRTVCREIVTERRQTNLDHKNDLLDTMLTSRDSLSGDALSDESIIDNILTFLVAGHETTSGLLSFAVYYLLTTPDAMAKAAHEVDDVVGDQELTIEHLSMLKYLNAILRETLRLMPTAPGFSVTPYKPEIIGGKYEVKPGDSLDVFLAAVHRDPAVYGSDADEFRPERMFDEHFQKLPANSWKPFGNGKRSCIGRAFAWQEALMILALILQSFSLDLVDRGYTLKLKESLTIKPDNLWAYATPRPGRNVLHARLALQTNSTHPEGLMSLKHETVESQPATILYGSNTGTCEALAHRLAIEMSSKGRFVCKVQPMDEIEHRRLPRGQPVIIVTGSYDGRPPENARHFVKWLQSLEGNDLEGIQYAVFGCGLPGHHDWSTTFYKIPTLIDTIMAEHGGARLAPRGSADTAEDDPFVELESWSERRVWPGLEAAFDLVRHNSSDGTGKSTRITIRSPYTLRAAHETAVVHQVRVLTSAETTKKVHVELALPDTINYRPGDHLAILPLNSRQSVQRVLSLFQIGSDTILYITSSSATSLPTDTPISAHDLLSGYVELNQVATPTSLRSLAAKATDEKTAEYLEALATDRYTTEVRGNHLSLLDILESYSVPSIEIQHYIQMLPPLRPRQYTISSSPRLNRGQASLTVSVMERADIGGPRNCAGVASNYLASCTPGSILRVSLRHANPDFRLPDESCSHPIIMVAAGSGIAPFRAFVQERSVRQKEGIILPPAFLFFGCRRADLDDLYREELDAFEEQGVVTLFRAFSRAQSESHGCKYVQDLLWMERVRVKTLWGQDAKVFVCGSVRMNEGVKAIISKIVSPTPTEELARRYIAETFI

Format: cell-based, P. pastoris
Procedure: Precultures of P. pastoris transformants were prepared in buffered complex glycerol media (BMGY). BMGY contained: 10 g/l yeast extract, 20 g/l peptone, 3.4 g/l yeast nitrogen base, 10 g/l ammonium sulfate, 100 mM potassium phosphate (pH 6), 0.4 mg/l biotin and 1% (v/v) glycerol. Erlenmeyer flasks (500 ml) containing 50 ml BMGY media were inoculated with single colonies of 24 h old YPD-agar cultures of P. pastoris KM71 mut^s3/CYP505E3 and incubated at 30° C. and 225 rpm for 24 h. The cultures were harvested using pre-weighed centrifuge tubes at 3000 g for 5 min and stored on ice until further use.
The main cultures for expression were prepared in buffered complex methanol media (BMMY) containing 10 g/l yeast extract, 20 g/l peptone, 3.4 g/l yeast nitrogen base, 10 g/l ammonium sulfate, 100 mM potassium phosphate (pH 6), 0.4 mg/l biotin and 0.5 or 1% (v/v) methanol. Harvested cells from precultures were resuspended in BMMY media to final concentration of 1 g WC per 40 ml (appx. 25 g/l). The resuspended cultures (100 ml) were transferred to 500 ml Erlenmeyer flasks and incubated at 25° C. and 225 rpm for 24 h. The cultures were then harvested at 3000 g for 5 min using pre-weighed centrifuge tubes.
Different transformants of Pichia pastoris KM71 harbouring the CYP505 genes for SEQ ID Nos 1 to 7 and 9 to 12 were grown and harvested as described above. The harvested cells were resuspended to give 1 g wet cell weight in 40 ml MOPS buffer (200 mM, 100 mM glucose, 100 mM glycerol, pH 8) and 1 ml aliquots of these cell suspensions were transferred to 40 ml amber vials. Dodecane, 1-dodecanol and 1-tetradecanol were added neat to these cell suspensions to give final concentrations of 200 mM in the case of the alcohols and 1 M in the case of dodecane while in the case of dodecanoic acid 20 μl of a 500 mM stock solution (in DMSO) was added to give a final concentration of 10 mM. Transformants harbouring the CYP505 genes for SEQ ID Nos 1 to 4 were tested for the biotransformation of 1-dodecanol, 1-tetradecanol, dodecanoic acid, tetradecanoic acid and dodecane, while those harbouring the CYP505 genes for SEQ ID Nos 5 to 7 and 9 to 12 were only tested for the biotransformation of 1-dodecanol and dodecanoic acid. The biotransformations were incubated at 25° C. and 225 rpm for 24 h. Extractions were performed using ethyl acetate (500 μl×2). The extracts were analyzed using GC/MS.

Molecule	ω-7 hydroxylase activity C12FA	ω-7 hydroxylase activity C12ol
B1	−	−
B2	−	−
B3	−	−
